Source: patent US20170240592A1, “GADD45BETA/MKK7 INHIBITOR FOR THE TREATMENT OF A RESISTANT HAEMATOLOGICAL MALIGNANCY” (IMPERIAL INNOVATIONS LIMITED, priority 2014, published 2017)
Square brackets hold non-standard residues; d marks the D form. * marks the point of attachment. Cbz = O=C(OCc1ccccc1)*

Legend:
[1] = tested on: KMS-12 cells; test: [3H]thymidine incorporation assay, DTP3 and bortezomib as single agents or in combination, KMS-12; details: Homo sapiens, 48 h, read-out: IC50 value as single agent
Description: (§2) Treatments with DTP3 were for 6 days; bortezomib was added to the cell cultures 48 hr prior to the measurement of cell viability. For the combination treatment, DTP3 was used at the concentrations of 3 nM in U266 cells and of 10 nM in KMS-12 cells, whereas bortezomib was used at increasing concentrations, as shown.
Viability data from the experiment shown in FIG. 12 were converted into values representing the fraction of cells affected (FA) equaling 0.5 in the drug-treated cultures compared with untreated cultures, and the interaction of DTP3 with bortezomib was analysed according to the Chou-Talalay method (Chou, 2006). Also shown are the drug concentrations giving the FA value of 0.5 and the description of the CI. Based on the Chou-Talalay equation (Chou, 2006), synergy is present when the CI is less than 1.0 (where values between 0.3 and 0.7 denote synergism, and values between 0.1 and 0.3 denote strong synergism); the combination is additive when CI equals 1.0, and antagonistic when it is more than 1.0 (Chou, 2006).
(§3) [^3H]Thymidine incorporation assays were performed using standard protocols (Griffiths and Sundaram, 2011). […] At 24, 72 or 144 hr, cells were incubated for an additional 16 hr with 0.037 MBq/well of [^3H]thymidine (Amersham), and then harvested onto glass fibre filter mats using a 96-well plate automated Tomtec cell harvester (Receptor Technologies) and analysed by liquid scintillation spectroscopy with a LKB Wallac Trilux Microbeta 3 b-counter (PerkinElmer). Values were expressed as the percentage of the counts per minute (cpm) measured in the treated cultures relative to the cpm measured in the respective untreated cultures. […]
The activities of DTP3 and bortezomib in the U266 and KMS-12 myeloma cell lines, both as single agents and in combination, were determined using [^3H]thymidine incorporation assays, performed as described above in “Cell Proliferation, Cell Death, and Apoptosis Assays”. The IC50 values of bortezomib as single agent were determined at 48 hr using 9 concentrations of drug, ranging from 0.1 to 1,000 nM.

[2] = tested on: U266 cells; test: [3H]thymidine incorporation assay, DTP3 and bortezomib as single agents or in combination, U266; details: Homo sapiens, U-266, 48 h, read-out: IC50 value as single agent
Description: as §2
Viability data from the experiment shown in FIG. 12 were converted into values representing the fraction of cells affected (FA) equaling 0.5 in the drug-treated cultures compared with untreated cultures, and the interaction of DTP3 with bortezomib was analysed according to the Chou-Talalay method (Chou, 2006). Also shown are the drug concentrations giving the FA value of 0.5 and the description of the CI. […]
as §3

[3] = tested on: diffuse large B-cell lymphoma (DLBCL) cell lines; test: PI nuclear staining assay, apoptotic cells in DLBCL cell lines; format: cell-based, human; details: 6 days; sensitive and insensitive DLBCL cell lines; baseline level
Description: Current treatment of diffuse large B-cell lymphoma typically involves treatment with combination therapy, such as cyclophosphamide, doxorubicin, vincristine and prednisone (CHOP), or rituximab, cyclophosphamide, doxorubicin, vincristine and prednisone (R-CHOP). With those current treatments, many patients relapse and/or develop drug resistance at some point. The potential of the Gadd45β/MKK7 inhibitor DTP3 to operate in these settings was evaluated, by determining levels of apoptosis in diffuse large B-cell lymphoma cell lines known to be resistant to current therapies (HT, SU-DHL-8, U-2932, RC-K8 and RIVA, see for example Kaneko et al, Clinical Cancer Research, 2014, 20, p 1814-1820; Naylor et al, Cancer Research, 2011, Volume 71, p 2643-2653; Lyu et al, Cancer Research, 2013, Volume 73, Issue 8, Supplement 1), following treatment of those cells with DTP3. These cells have CARD11, A20 and/or MYD88 mutations and are also known to be resistant to agents such as Bruton's tyrosine kinase inhibitors, spleen tyrosine kinase inhibitors, PI3K inhibitors and/or protein kinase C inhibitors.
The percentages of apoptotic cells are depicted.
A comparison was made between the ability of DTP3 to kill various DLBCL cell lines by apoptosis in vitro. Cell lines HT, SU-DHL-8, U-2932 and RC-K8 which are known to be sensitive to DTP3; and insensitive cell lines RI-1, NU-DUL-1, TMD8, and HBL1 were used. Cell death was assessed using a standard propidium iodide (PI) nuclear staining assay followed by flow cytometry whereby the proportion of cells with a sub G1-DNA content was measured after cells had been exposed to DTP3 for 6 days at 10 μM. As controls, further populations of cells were left untreated (UT) or were treated with a scrambled D-tripeptide (SCR) for 6 days.
Apoptosis analyses were performed using propidium iodide (PI) nuclear labelling, as described previously (Riccardi and Nicoletti, 2006). Briefly, cells were seeded at a density of 2×10^5 cells/well into wells of either 24- or 48-well plates and cultured in the presence or absence of treatment, as shown. Cells were then fixed in 70% ice-cold ethanol for 16 hr, washed in PBS, and treated with ribonuclease A (50 μg/mL) for 30 min at room temperature. Samples were finally stained with PI (50 μg/mL) in 0.1% sodium citrate buffer for 2 to 4 hr at 4° C. in the dark, and data were acquired using a FACSCalibur automated system (Becton Dickinson) and analysed with FlowJo.

[4] = molecular target: T1, Gadd45β/MKK7 complex (Homo sapiens, UniProt O14733); test: co-immunoprecipitation assay; format: binding; details: anti-FLAG immunoprecipitates, HEK-293T lysates
T1 construct: expressed in transfected cells; host or cells: human HEK-293T
T1 sequence (O14733 1-419): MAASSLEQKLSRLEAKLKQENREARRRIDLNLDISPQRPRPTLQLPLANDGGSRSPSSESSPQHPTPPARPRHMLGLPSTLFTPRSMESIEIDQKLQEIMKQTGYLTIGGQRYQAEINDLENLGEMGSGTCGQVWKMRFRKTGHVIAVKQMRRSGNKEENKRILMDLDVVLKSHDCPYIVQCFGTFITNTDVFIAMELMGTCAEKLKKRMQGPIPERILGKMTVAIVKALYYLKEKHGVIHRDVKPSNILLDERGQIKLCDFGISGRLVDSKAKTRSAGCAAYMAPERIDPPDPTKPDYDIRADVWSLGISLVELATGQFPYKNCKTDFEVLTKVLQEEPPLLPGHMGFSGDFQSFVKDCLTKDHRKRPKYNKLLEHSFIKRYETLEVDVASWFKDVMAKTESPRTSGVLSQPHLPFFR
Description: (§1) Values express the percentage of live cells present in the treated cultures relative to the live cells present in the respective untreated cultures and denote means±SD ([WM]; n=3). UT, untreated. […] Values express the percentage of inhibition of Gadd45β binding to MKK7 relative to the binding measured in the absence of peptide. […] Co-immunoprecipitations (IP) were performed using an anti-FLAG antibody (a-FLAG); western blots (WB) were developed using an anti-HA or an anti-MKK7 antibody, as shown.
Co-immunoprecipitation assays were performed as described previously (Papa et al., 2004). Briefly, human HEK-293T cells were seeded at a density of 1.8-2.2×10^6 cells/dish in […] tissue-culture dishes and then transfected with pcDNA-FLAG-hMKK7 and pcDNA-HA-hGADD45β by using the calcium phosphate precipitation method (Papa et al., 2004). 48 hr after transfection, cells were washed with PBS and then lysed in lysis buffer supplemented with protease inhibitors (1 mM phenylmethylsulfonylfluoride, 10 μM chymostatin, 2 μg/mL aprotinin, 2 μg/mL leupeptin; Roche) for 30 min in ice. Cell lysates were cleared by centrifugation at 45,000×g for 40 min and then used for co-immunoprecipitations with anti-FLAG M2 Affinity Gel (Sigma-Aldrich), binding to FLAG-tagged MKK7. Western blots were developed using an anti-HA (binding to HA-hGADD45β) or an anti-MKK7 antibody. […]

[5] = molecular target: GST-MKK7 (full-length human MKK7 fused to an N-terminal GST tag) (human) (UniProt O14733); test: ELISA Gadd45β/MKK7 competition; without serum pre-incubation
[6] = molecular target: GST-MKK7 (full-length human MKK7 fused to an N-terminal GST tag) (human) (UniProt O14733); test: ELISA Gadd45β/MKK7 competition; after 48-hr pre-incubation with human serum at 37 C
[7] = molecular target: GST-MKK7 (full-length human MKK7 fused to an N-terminal GST tag) (human) (UniProt O14733); test: ELISA Gadd45β/MKK7 competition (summary sentence on FIGS. 4 to 8)
[8] = tested on: multiple myeloma cell lines; test: [3H]thymidine incorporation assay, survival of multiple myeloma cell lines; format: cell-based, human; details: for cytotoxic activity in multiple myeloma cell lines: 6-day treatment, all lines tested apart from RPMI-8226 and KMM-1; for IC50 values in the sensitive multiple myeloma cell lines: 144 hr, sensitive (Gadd45β-dependent) cell lines
Description: as §1
[^3H]Thymidine incorporation and trypan blue exclusion assays were performed using standard methods (Mauro et al., 2011). […] Apoptosis analyses were performed using PI staining as described in Mauro et al., 2011. Additional details are provided in the Supplemental Experimental Procedures.

[9] = mouse, in vivo
Description: In vitro pharmacokinetic assays were performed according to established, in-house protocols and included: plasma stability (human), thermodynamic solubility (PBS pH 7.4, at 37° C. for 14 days), microsomal stability (human), plasma protein binding (PPB; mouse and human), and distribution coefficient (Log D). In vivo pharmacokinetic analyses were also performed at Cyprotex according to established, in-house protocols. Briefly, the peptides were dissolved in PBS and administered by single intravenous injection to CD1 male mice at the dose of 10 mg/kg (25-30 g of total body weight; n=3 mice per time point per compound). Blood samples were collected in heparinized tubes at up to 7 time points after this injection (i.e. 0.08, 0.25, 0.5, 1, 2, 4 and 8 hr), and the plasma concentrations of the test peptide were determined at each time point by LC-MS/MS, using a five-point standard curve covering a peptide concentration range from 3 to 3,000 ng/mL. Standard curves were prepared using blank plasma matrices and treated in the same manner as the test samples. […] Values were calculated from the data of the peptide plasma concentration versus time curves using a non-compartmental model analysis, as described elsewhere (Groulx, 2006; Landaw and Di Stefano 3rd, 1982). The doses of z-DTP2 and DTP3 predicted to achieve the therapeutic plasma concentration of 1 μM at the steady state were calculated from the measured pharmacokinetic values using the following equation: k0=k1×Vd×Cp (where Vd is expressed in L/kg; Cp is the plasma concentration at the steady state expressed in mg/L; k0 is the zero order input expressed in mg/kg/hr; k1 is the first order elimination constant [0.693/t1/2]).

## CC(C)C[C@H](NC(=O)[C@H](Cc1ccccc1)NC(=O)c1cnccn1)B(O)O [bortezomib, reference compound]
[1]
  IC50: 6 nM
[2]
  IC50: 6 nM

## Ac-Arg-Phe-Tyr-NH2 (Ac-[dR]-[dF]-[dY]-NH2) [SCRB, scrambled control D-tripeptide, reference compound]
[3]
  percentage of apoptotic cells: no more than 27.2%
[4]
  disruption of the Gadd45β/MKK7 complex: not

## DTP3 (Acetyl-Tyr-Arg-Phe-NH2, all residues in the D configuration)
[5]
  IC50: 0.16 nM
[6]
  IC50: 0.13 nM

## DTP3 (Acetyl-Tyr-Arg-Phe-NH2, all residues in the D configuration) (peptide)
[7]
  IC50: < 1 nM

## tetrapeptide Tyr-Asp-His-Phe, D-configuration, NH2 group at the C terminal, benzyloxycarbonyl group at the N terminal (Cbz-[dY][dD][dH][dF]-NH2) [z-DTP1]
[8]
  cytotoxic activity in multiple myeloma cell lines: potent and dose-dependent toxicity
  IC50 values in the sensitive multiple myeloma cell lines: low nM to low μM

## tetrapeptide Tyr-Glu-Arg-Phe, D configuration, NH2 group at the C terminal, benzyloxycarbonyl group at the N terminal (Cbz-[dY][dE][dR][dF]-NH2) [z-DTP2]
[8]
  cytotoxic activity in multiple myeloma cell lines: potent and dose-dependent toxicity
  IC50 values in the sensitive multiple myeloma cell lines: low nM to low μM
[9]
  predicted dose required to achieve the therapeutic plasma concentration of 1 μM at the steady state (k0): 3.61 mg/kg/h
